Data published in US8597660B2, “Therapeutic approach to neurodegenerative disorders using a TFP5-peptide” (The United States of America, as represented by the …, priority 2010, dated 2013).
“Also recorded” adds a separate entry of the source.

Tests used:
Cdk5/P35 = Cdk5/P35 (Homo sapiens, UniProt Q00535); test: Cdk5/P35 kinase assay after pre-incubation with β-tubulin; assay type: biochemical
Procedure: Tubulin polymerization was performed as detailed in a previous report (Hou et al., J. Biol. Chem., 282(26), 18666-18670, 2007). Briefly, active kinase Cdk5/P35 (2 ng/μL) or active Cdk5/P25 (1 ng/μL) were incubated with β-tubulin (enzyme: tubulin at 1:100) in the PEM buffer (80 mM PIPES, 2 mM MgCl2, 1 mM EGTA PH 7.0) supplemented with 1 mM GTP at 35° C. for 45 minutes. Following the incubation, Cdk5 kinase assays were performed with or without the addition of 0.45 μM or 0.90 μM P5.
To further explore this possibility, β-tubulin (which is enriched in neurons) was used to perform a study in vitro to mimic P35 interactions in cells. Cdk5/P35 and Cdk5/P25 active kinases were pre-incubated with β-tubulin (Cdk5 kinase:tubulin=1:100) respectively at 35° C. for 45 minutes to 1 hour under conditions that would promote tubulin polymerization, followed by a Cdk5 kinase assay with/without the addition of P5. […] Cdk5/P25 activity, however, was inhibited 60% after pre-incubation at the lower P5 concentration (0.45 μM) (FIG. 9B, lane 4 compared with lane 1) (p<0.01). […] On the other hand, P25, lacking the P10 domain, fails to bind these proteins, and P5 readily binds with Cdk5 in the Cdk5/P25 complex to inhibit activity.

[1] = system: Cdc2, Cdk2, Cdk4, and Cdk6; test: Kinase pad assay on Cdk immunoprecipitates of untreated HEK293 lysates with added P5 peptide; assay type: biochemical, human; settings: P5 peptide up to 1.8 μM; roscovitine 20 μM
Procedure: Briefly, 7 days in culture (7 DIC) primary rat cortical neurons were infected with P25, P35, Cdk5 wild-type, dominant negative-Cdk5 and P5 using the lentiviral gene delivery as described earlier. Cdk5 was immunoprecipitated using the polyclonal C8 antibody overnight at 4° C. and immunoglobulin isolated using Protein A sepharose beads for 2 hours at 4° C. Immunoprecipitates were washed three times with lysis buffer and then once with 1× kinase buffer containing 20 mM Tris-Cl pH 7.4, 1 mM EDTA, 1 mM EGTA, 10 mM MgCl2, 10 mM sodium fluoride and 1 mM sodium orthovanadate. Endogenous Cdks were immunoprecipitated from HEK 293 cells using their respective antibodies and treated as above. […] ATP with 20 μg of histone H1 as the substrate. Phosphorylation was performed in a final volume of […] incubated at 30° C. for 60 minutes, stopped by the addition of 10% SDS sample buffer and heating at 95° C. for 5 minutes. Samples were separated by SDS-PAGE, gels were stained with Coomassie, destained, dried and exposed to autoradiography. In pad assays, 25 μl aliquots of the incubation mixture were placed on a Whatman p80 paper square, washed and dried and placed in a scintillation vial for counting.

Sequence of Cdk5/P35 (Q00535 whole entry, species assumed): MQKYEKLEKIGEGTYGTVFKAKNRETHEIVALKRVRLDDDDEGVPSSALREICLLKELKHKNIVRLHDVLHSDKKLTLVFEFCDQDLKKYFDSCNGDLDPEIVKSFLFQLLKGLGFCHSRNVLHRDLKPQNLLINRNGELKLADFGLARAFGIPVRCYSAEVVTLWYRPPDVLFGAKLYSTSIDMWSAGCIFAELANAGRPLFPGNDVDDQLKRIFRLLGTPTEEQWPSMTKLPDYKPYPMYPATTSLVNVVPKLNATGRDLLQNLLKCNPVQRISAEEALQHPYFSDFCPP

P5: 24 residue peptide derived from Cdk5 activator P35 (K254-A277 of SEQ ID NO: 16); Cdk5 inhibitory peptide (KEAFWDRCLSVINLMSSKMLQINA; listed as Homo sapiens)
Inhibition of Cdk5/P35 activity pre-incubated with polymerized tubulin (Cdk5/P35; 0.45 μM P5): no effect on pre-incubated Cdk5/P35 activity; also recorded: not inhibited; also recorded: had no effect on Cdk5/P35 | Inhibition of Cdk5/P35 activity with unpolymerized tubulin (no pre-incubation) (Cdk5/P35; 0.45 μM P5): P5 inhibits both kinases equally; also recorded: inhibited both Cdk5/P35 and Cdk5/P25 activities equally; also recorded: inhibited both complexes equally | Inhibition of Cdk5/P35 activity pre-incubated with polymerized tubulin (Cdk5/P35; 0.9 μM P5): both kinase complexes are inhibited equally; also recorded: both Cdk5 complexes were inhibited | Inhibition of cell cycle Cdk activities in vitro [1]: virtually no inhibition; also recorded: minimal inhibition of Cdc2 and Cdk4 activities
